Results on two molecules are retold here after publication PMC10397247.

Test [1] deals with T1, 4H967-bA.
T1 chain: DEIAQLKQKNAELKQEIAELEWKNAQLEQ
The test can be described thus: two-hybrid library CCNG1.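 Further: natural log of median RNA to DNA barcode read ratio; higher means stronger binding.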

Test [2] concerns the target T2, 4H3427-bA.
T2 chain: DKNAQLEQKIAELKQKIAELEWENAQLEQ
In words: two-hybrid library CCNG1.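 Further: natural log of median RNA to DNA barcode read ratio; higher means stronger binding.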

Test [3] addresses T3, 4H2729-bA.
T3 chain: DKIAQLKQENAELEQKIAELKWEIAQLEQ
In words: two-hybrid library CCNG1.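 Further: natural log of median RNA to DNA barcode read ratio; higher means stronger binding.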

The target in test [4] is T4, 4H72-bA.
T4 chain: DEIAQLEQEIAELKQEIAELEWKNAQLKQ
The test can be described thus: two-hybrid library CCNG1.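 Further: natural log of median RNA to DNA barcode read ratio; higher means stronger binding.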

The target of test [5] is T5, 4H797-bA.
T5 chain: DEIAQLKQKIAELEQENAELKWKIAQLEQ
The test can be described thus: two-hybrid library CCNG1.

Test [6] has as its target T6, 4H687-bA.
T6 chain: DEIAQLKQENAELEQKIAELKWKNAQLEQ
In words: two-hybrid library CCNG1.

Test [7] concerns the target T7, 4H3354-bA.
T7 chain: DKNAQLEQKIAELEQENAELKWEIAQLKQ
In words: two-hybrid library CCNG1.

The target in test [8] is T8, 4H717-bA.
T8 chain: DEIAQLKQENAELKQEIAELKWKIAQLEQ
In words: two-hybrid library CCNG1.

For test [9], the target named is T9, 4H338-bA.
T9 chain: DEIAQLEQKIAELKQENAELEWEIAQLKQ
The test can be described thus: two-hybrid library CCNG1.

The target of test [10] is T10, 4H607-bA.
T10 chain: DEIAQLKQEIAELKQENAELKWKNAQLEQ
In words: two-hybrid library CCNG1.

The target of test [11] is T11, 4H3782-bA.
T11 chain: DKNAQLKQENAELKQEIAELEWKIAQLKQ
In words: two-hybrid library CCNG1.

Test [12] has as its target T12, 4H918-bA.
T12 chain: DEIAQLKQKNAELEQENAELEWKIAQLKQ
In words: two-hybrid library CCNG1.

Test [13] addresses T13, 4H3855-bA.
T13 chain: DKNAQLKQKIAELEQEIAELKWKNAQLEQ
The test can be described thus: two-hybrid library CCNG1.

Test [14] addresses T14, 4H331-bA.
T14 chain: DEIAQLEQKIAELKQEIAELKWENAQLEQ
In words: two-hybrid library CCNG1.

For test [15], the target named is T15, 4H908-bA.
T15 chain: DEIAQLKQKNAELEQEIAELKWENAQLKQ
The test can be described thus: two-hybrid library CCNG1. The settings on record: mean of both orientations.

The target in test [16] is T16, 4H4001-bA.
T16 chain: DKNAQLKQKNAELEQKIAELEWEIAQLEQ
In words: two-hybrid library CCNG1.

Test [17] concerns the target T17, 4H568-bA.
T17 chain: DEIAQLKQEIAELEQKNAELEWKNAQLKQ
In words: two-hybrid library CCNG1.

Test [18] addresses T18, 4H3185-bA.
T18 chain: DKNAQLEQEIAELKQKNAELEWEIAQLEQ
In words: two-hybrid library CCNG1.

The target in test [19] is T19, 4H454-bA.
T19 chain: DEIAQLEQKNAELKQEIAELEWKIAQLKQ
The test can be described thus: two-hybrid library CCNG1.

Test [20] has as its target T20, 4H754-bA.
T20 chain: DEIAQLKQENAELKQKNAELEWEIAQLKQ
In words: two-hybrid library CCNG1.

The target in test [21] is T21, 4H953-bA.
T21 chain: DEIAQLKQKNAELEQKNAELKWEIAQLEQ
In words: two-hybrid library CCNG1.

Test [22] deals with T22, 4H3112-bA.
T22 chain: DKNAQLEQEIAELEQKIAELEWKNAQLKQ
In words: two-hybrid library CCNG1.

In test [23] the target is T23, 4H883-bA.
T23 chain: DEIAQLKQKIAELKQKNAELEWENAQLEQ
In words: two-hybrid library CCNG1.

In test [24] the target is T24, APC5009-AA.
T24 chain: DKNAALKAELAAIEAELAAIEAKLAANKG
The test can be described thus: two-hybrid library CCmax. Particulars: mean of both orientations.

Test [25] addresses T25, APC4336-AA.
T25 chain: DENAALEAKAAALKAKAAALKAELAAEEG
The test can be described thus: two-hybrid library CCmax. Particulars: mean of both orientations.

Test [26] deals with T26, APC4100-AA.
T26 chain: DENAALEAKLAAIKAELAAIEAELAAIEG
In words: two-hybrid library CCmax. Particulars: mean of both orientations.

Test [27] concerns the target T27, APC2811-AA.
T27 chain: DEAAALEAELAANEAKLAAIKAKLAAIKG
The test can be described thus: two-hybrid library CCmax. Particulars: mean of both orientations.

In test [28] the target is T28, APC9182-AA.
T28 chain: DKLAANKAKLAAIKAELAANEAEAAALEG
In words: two-hybrid library CCmax. Particulars: mean of both orientations.

The target in test [29] is T29, APC542-AA.
T29 chain: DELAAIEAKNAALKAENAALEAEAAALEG
In words: two-hybrid library CCmax. Particulars: mean of both orientations.

Test [30] addresses T30, APC9806-AA.
T30 chain: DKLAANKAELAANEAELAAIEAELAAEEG
In words: two-hybrid library CCmax. Particulars: mean of both orientations.

Test [31] has as its target T31, APC3354-AA.
T31 chain: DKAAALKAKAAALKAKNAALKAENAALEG
In words: two-hybrid library CCmax. Particulars: mean of both orientations.

Test [32] concerns the target T32, APC8516-AA.
T32 chain: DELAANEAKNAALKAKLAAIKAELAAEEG
The test can be described thus: two-hybrid library CCmax. The settings on record: mean of both orientations.

The target in test [33] is T33, APC5531-AA.
T33 chain: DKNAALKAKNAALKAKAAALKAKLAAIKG
In words: two-hybrid library CCmax. The settings on record: mean of both orientations.

The target in test [34] is T34, APC9291-AA.
T34 chain: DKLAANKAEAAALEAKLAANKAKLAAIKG
The test can be described thus: two-hybrid library CCmax. The settings on record: mean of both orientations.

In test [35] the target is T35, APC8401-AA.
T35 chain: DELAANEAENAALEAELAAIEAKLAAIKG
The test can be described thus: two-hybrid library CCmax. The settings on record: mean of both orientations.

Test [36] has as its target T36, APC2724-AA.
T36 chain: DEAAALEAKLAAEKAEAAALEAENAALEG
The test can be described thus: two-hybrid library CCmax.

Test [37] deals with T37, APC3881-AA.
T37 chain: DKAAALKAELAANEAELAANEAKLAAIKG
The test can be described thus: two-hybrid library CCmax. The settings on record: mean of both orientations.

Test [38] concerns the target T38, APC2556-AA.
T38 chain: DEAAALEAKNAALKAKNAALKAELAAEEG
In words: two-hybrid library CCmax. Particulars: mean of both orientations.

The target in test [39] is T39, APC2543-AA.
T39 chain: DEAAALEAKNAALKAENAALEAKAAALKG
The test can be described thus: two-hybrid library CCmax.

The target in test [40] is T40, APC2981-AA.
T40 chain: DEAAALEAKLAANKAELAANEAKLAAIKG
The test can be described thus: two-hybrid library CCmax. The settings on record: mean of both orientations.

The target in test [41] is T41, APC6088-AA.
T41 chain: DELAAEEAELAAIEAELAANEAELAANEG
In words: two-hybrid library CCmax. The settings on record: mean of both orientations.

The target in test [42] is T42, APC7524-AA.
T42 chain: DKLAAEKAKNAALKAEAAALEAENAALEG
The test can be described thus: two-hybrid library CCmax. Particulars: mean of both orientations.

Test [43] addresses T43, APC3265-AA.
T43 chain: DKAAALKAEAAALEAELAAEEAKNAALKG
The test can be described thus: two-hybrid library CCmax. The settings on record: mean of both orientations.

For test [44], the target named is T44, APC9141-AA.
T44 chain: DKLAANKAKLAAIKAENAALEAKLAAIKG
The test can be described thus: two-hybrid library CCmax. The settings on record: mean of both orientations.

Test [45] addresses T45, APC3323-AA.
T45 chain: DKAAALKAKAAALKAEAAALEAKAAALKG
The test can be described thus: two-hybrid library CCmax. Particulars: mean of both orientations.

DKIAQLKQENAELEQKIAELKWEIAQLEQ [4H2729-bA]: the interaction score in [1] was 0.0132; in test [2], -0.88; in test [3], -0.254; in test [4], -0.336; in test [5], -1.21; in [6] it was -1.51. For the same molecule, the interaction score in [7] is -0.919; in [8] it was -1.35; in test [9], -0.713; in test [10] it was -1.29; in test [11], 0.712; in [12], 1.73. Also, the interaction score in [13] is -0.46; in test [14] it was -1.18; in [15], -0.401; in test [16], -0.575; in [17], -1.78; in test [18] it was -0.331. In addition, the interaction score in test [19] is 1.84; in [20] it was -0.709; in test [21], -1.01; in test [22], -0.141; in test [23] it was -1.72.

As for DEAAALEAKNAALKAENAALEAKAAALKG [APC2543-AA], the interaction score was -1.04 in test [24]; -1.73 in test [25]; -1.65 in [26]; -1.54 in test [27]; -1.84 in test [28]; -1.65 in [29]. In addition, the interaction score was -1.56 in test [30]; -1.72 in test [31]; -1.7 in test [32]; -1.8 in test [33]; -1.67 in [34]; -1.23 in test [35]. In addition, the interaction score is -1.16 in test [36]; -1.22 in [37]; -1.67 in [38]; -1.71 in test [39]; -1.4 in test [40]; -1.87 in test [41]. The interaction score was -1.63 in test [42], -1.58 in test [43], -1.6 in [44] and -1.36 in [45].
